Measured values from publication PMC3292258 (Nature, 2012).

Biological target: T1, MBP-YDA (Arabidopsis, UniProt Q9CAD5 1-883)
T1 sequence (looked up): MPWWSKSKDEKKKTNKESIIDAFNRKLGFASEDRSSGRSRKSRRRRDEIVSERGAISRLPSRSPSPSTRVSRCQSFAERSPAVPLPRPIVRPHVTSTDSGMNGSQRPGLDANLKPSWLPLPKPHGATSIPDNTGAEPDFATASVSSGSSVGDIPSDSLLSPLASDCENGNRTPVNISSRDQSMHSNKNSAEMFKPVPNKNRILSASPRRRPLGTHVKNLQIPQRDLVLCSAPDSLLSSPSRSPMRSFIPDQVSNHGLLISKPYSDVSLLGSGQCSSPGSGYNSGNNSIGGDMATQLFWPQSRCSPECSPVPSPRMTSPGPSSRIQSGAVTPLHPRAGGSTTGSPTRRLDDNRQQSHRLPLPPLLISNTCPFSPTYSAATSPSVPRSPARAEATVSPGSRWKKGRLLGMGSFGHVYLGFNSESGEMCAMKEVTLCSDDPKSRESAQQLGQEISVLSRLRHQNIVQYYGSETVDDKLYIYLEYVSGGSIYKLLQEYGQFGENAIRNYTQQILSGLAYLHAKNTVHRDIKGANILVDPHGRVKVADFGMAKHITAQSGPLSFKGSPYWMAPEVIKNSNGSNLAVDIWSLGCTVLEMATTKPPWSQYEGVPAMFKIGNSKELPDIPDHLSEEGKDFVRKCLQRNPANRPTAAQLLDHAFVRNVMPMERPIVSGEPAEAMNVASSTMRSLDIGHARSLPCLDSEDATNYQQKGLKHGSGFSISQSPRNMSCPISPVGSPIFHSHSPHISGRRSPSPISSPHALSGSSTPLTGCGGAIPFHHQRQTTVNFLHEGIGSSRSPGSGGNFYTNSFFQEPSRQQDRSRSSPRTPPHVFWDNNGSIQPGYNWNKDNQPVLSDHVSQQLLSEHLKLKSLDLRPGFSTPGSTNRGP
Assay: far-Western, overlay or dot blot

binding result: binds
B1: GST-BIN2 (enzyme, Arabidopsis, UniProt Q39011 1-380, looked up)
chain: MADDKEMPAAVVDGHDQVTGHIISTTIGGKNGEPKQTISYMAERVVGTGSFGIVFQAKCLETGETVAIKKVLQDRRYKNRELQLMRVMDHPNVVCLKHCFFSTTSKDELFLNLVMEYVPESLYRVLKHYSSANQRMPLVYVKLYMYQIFRGLAYIHNVAGVCHRDLKPQNLLVDPLTHQVKICDFGSAKQLVKGEANISYICSRFYRAPELIFGATEYTTSIDIWSAGCVLAELLLGQPLFPGENAVDQLVEIIKVLGTPTREEIRCMNPHYTDFRFPQIKAHPWHKIFHKRMPPEAIDFASRLLQYSPSLRCTALEACAHPFFDELREPNARLPNGRPFPPLFNFKQEVAGSSPELVNKLIPDHIKRQLGLSFLNQSGT
